Assay results reported in article PMC4470507.

How the values were obtained:
[1] = target: PfCCT MΔK^R681H, R681H point mutant of the second catalytic domain construct of Plasmodium falciparum CTP:phosphocholine cytidylyltransferase (528–795, Δ720–737) (Plasmodium falciparum); assay: native MS; native electrospray, QTOF, positive ion mode; 5 mM NH4HCO3 pH 7.2; gel filtered protein at 0.4 μM monomer concentration; source temperature 80°C; dimer to monomers; 3 samples from different expressions
[2] = target: PfCCT MΔK^WT, second catalytic domain construct of Plasmodium falciparum CTP:phosphocholine cytidylyltransferase (528–795, Δ720–737) (Plasmodium falciparum); assay: as above

PfCCT MΔK^R681H, R681H point mutant of the second catalytic domain construct of Plasmodium falciparum CTP:phosphocholine cytidylyltransferase (528–795, Δ720–737) (domain or fragment)
fold decrease of the dimer:monomer abundance ratio against PfCCT MΔK^WT [1]: 20 times lower

PfCCT MΔK^WT, second catalytic domain construct of Plasmodium falciparum CTP:phosphocholine cytidylyltransferase (528–795, Δ720–737) (domain or fragment)
stoichiometry N [2]: 2
